Measurements reported in patent US20160348147A1, “SYSTEMS AND DEVICES FOR PROTEASE DETECTION BASED ON ENGINEERED POLYMERS AND BIOPOLYMERS AND METHODS OF USE” (DUKE UNIVERSITY, priority 2014, published 2016).

Experiments:
[1] = target: T1, Human MMP-1 catalytic domain (Homo sapiens, UniProt P03956); test: Time-dependent aggregation (OD350) of ELP-substrate fusion with MMP-1 in proteolysis buffer; assay type: biochemical; details: 50 nM MMP-1 inhibitor added prior to 50 ng/mL (2.5 nM) MMP-1; ELP-substrate fusion 100 μM, 40° C., protease buffer; even after 900 minutes
T1 construct: Human MMP-1 catalytic domain (recombinant, produced in E. coli, 19.9 kDa, >95% purity); purchased Enzo Life Sciences (Farmingdale, N.Y.); host or cells: E. coli
T1 sequence (P03956 100-269 limits assumed): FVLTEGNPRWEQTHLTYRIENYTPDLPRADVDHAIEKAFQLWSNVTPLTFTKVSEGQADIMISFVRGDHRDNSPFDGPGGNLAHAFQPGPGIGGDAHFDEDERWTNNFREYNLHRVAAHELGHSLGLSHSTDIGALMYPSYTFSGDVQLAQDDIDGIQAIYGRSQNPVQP

[2] = test system: endogenous MMP-1 in human serum; test: Time-dependent aggregation (OD350) of ELP-substrate fusion in diluted human serum (40%); assay type: biochemical; details: diluted serum, without any added MMP-1, after 400 minutes, 37° C.
Protocol: We performed the proteolysis reactions either in 100% protease buffer or in a mixture of human serum and buffer (40% (v/v) serum, 50% (v/v) buffer, 10% (v/v) ELP-substrate solution in water). The proteolysis buffer (100 mM HEPES, CaCl2 20 mM, MgCl2 1.0 mM, ZnCl2 100 μM, NaCl 0.5 M for diluted serum and 0.1 M for buffer solutions) was made experimentally in our lab based on previously published assays (Patterson, J. & Hubbell, J. A. Biomaterials 2010, 31, 7836-7845; Turk, B. E. et al., Nature Biotechnology 2001, 19, 661-667; Lowe, S. B. et al., Acs Nano 2012, 6, 851-857). We investigated proteolysis in two ways. In the first approach, we incubated solutions of the ELP-substrate fusion with MMP-1 (100 ng/mL) for 12 h at 40° C. temperature and measured the optical density at 350 nm (OD350) before and after the incubation. In the second approach, we incubated the ELP-substrate fusion with varying concentrations of MMP-1 (0.02 ng/mL to 200 ng/mL) in buffer or in diluted human serum, at 40° C. or 37° C. respectively, a temperature that is above the CMT of the ELP, and monitored the changes OD350 as a function of time (kinetic study). For the kinetic studies, we added the enzyme to the solution after the optical density of the solution reached a steady-state value and repeated the experiments at least three times. […]

[3] = Thermal behavior by optical turbidimetry and dynamic light scattering; assay type: physicochemical; details: concentration of 100 μM
Protocol: We confirmed the purity and molecular weight of the purified peptides by electrophoresis (10-20% gradient […] SDS-PAGE, Thermo Scientific, CA) and by matrix-assisted laser desorption/ionization mass spectrometry. Mass spectrometry samples were prepared by mixing the enzymatic reaction product with sinapinic acid in 1:10 ratio. 1 μL of the sample/matrix mixture was then loaded on the grid and the measurements were performed on a Voyager-DE-Pro instrument (Applied Biosystems, Germany). To determine the concentration of the ELP-substrate fusion solutions we used a calculated extinction coefficient (Gill, S. C. & Vonhippel, P. H. Analytical Biochemistry 1989, 182, 319-326) or lyophilized the polypeptide solution. We studied the thermal behavior of the ELP-substrate fusion constructs in both proteolysis buffer (see below) and diluted human serum in the presence and absence of MMP-1 using optical turbidimetry on a temperature-programmed UV-vis spectrometer (Cary 300, Agilent Technologies). To characterize the size of the micelles and aggregates, we used single angle dynamic light scattering (DLS; DynaPro, Protein Solution).
FIG. 2 presents optical densities at 350 nm (OD350) and hydrodynamic diameters of ELP-substrate fusion as a function of temperature prior to, and after, enzymatic reaction. […] These changes are consistent with the self-assembly of ELP-substrate fusions (unimers) into micelles as the temperature is raised above the CMT (Ghoorchian, A. et al., The Journal of Physical Chemistry. B 2013, 117, 8865-8874). We note that there is a slight local maximum in both the optical density and hydrodynamic diameter at temperatures slightly above the CMT, which has been observed previously (Hassouneh, W., Duke University, PhD thesis, 2013); the origin of this small peak is, as yet, unclear.

active PSA = active PSA (Homo sapiens, UniProt P07288); test: Optical density of PSA peptide before and after incubation with active PSA; assay type: biochemical; details: 100 μM, 20 ng/mL active PSA, protease buffer, 37° C., 2 hours
Sequence of active PSA (P07288 25-261): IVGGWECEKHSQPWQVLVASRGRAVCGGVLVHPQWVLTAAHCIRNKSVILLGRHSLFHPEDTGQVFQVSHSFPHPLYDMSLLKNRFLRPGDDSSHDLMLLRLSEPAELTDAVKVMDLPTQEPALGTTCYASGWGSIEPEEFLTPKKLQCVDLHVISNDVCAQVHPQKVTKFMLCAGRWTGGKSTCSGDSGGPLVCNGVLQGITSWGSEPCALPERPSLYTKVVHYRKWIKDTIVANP
Protocol: We designed a number of genes and replaced the MMP-1 sensitive peptide described above with a PSA-sensitive peptide sequence. One such example is: M(GVGVP)60[…] (SEQ ID NO:6; referred to herein as PSA peptide). Optical density measurements of 100 μM solution of PSA peptide were obtained prior to and after incubation with 20 ng/mL active PSA in protease buffer at 37° C. for 2 hours.

MMP-1 = target: T2, MMP-1 (Homo sapiens, UniProt P03956); test: Transition temperature of UCST biopolymer before and after incubation with MMP-1; assay type: biochemical; details: 25 μM, 25 ng/mL MMP-1, 37° C.
T2 sequence (P03956 100-469): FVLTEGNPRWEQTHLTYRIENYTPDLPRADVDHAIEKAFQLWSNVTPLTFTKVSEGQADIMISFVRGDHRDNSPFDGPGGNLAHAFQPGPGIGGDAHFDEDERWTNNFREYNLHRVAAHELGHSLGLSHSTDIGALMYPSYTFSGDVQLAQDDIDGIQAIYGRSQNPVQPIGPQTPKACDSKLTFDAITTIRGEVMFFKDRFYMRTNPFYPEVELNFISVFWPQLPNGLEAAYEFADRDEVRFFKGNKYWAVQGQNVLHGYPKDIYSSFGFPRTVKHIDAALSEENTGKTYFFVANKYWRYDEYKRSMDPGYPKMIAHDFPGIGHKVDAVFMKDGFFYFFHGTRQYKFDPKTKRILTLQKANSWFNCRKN
Description: To exemplify the use of UCST peptides, we changed our system by incorporating a number of UCST biopolymers with the MMP-1 substrate, for example: M(YPSDGRGQ)40YGDGQ VPMSMRGGDEGQQDDEEGY (SEQ ID NO:7; referred to herein as the A4 construct). Cleavage of the protease-sensitive peptide between S and M in this sequence at a constant temperature would increase the transition temperature, which can cause the solution to transition from clear to cloudy. The time that takes for the transition to happen depends on the enzyme concentration similar to in the manner in which the LCST, micellar-based assays described above function.
Accordingly, aggregation time can be used to estimate the enzyme concentration in an unknown solution.

**Q.** For `COc1ccc(S(=O)(=O)N(CC(=O)NO)CC(C)C)cc1` [NNGH, N-isobutyl-N-(4-methoxyphenylsulfonyl)glycyl hydroxamic acid, reference compound], which “change in optical density upon addition of the inhibitor” value [1] is on record?
**A.** no significant change in optical density

**Q.** And the “aggregation in diluted serum with added MMP-1 inhibitor” value [2]?
**A.** no aggregation

**Q.** For (GVGVP)60 [reference compound], which “soluble unimer-aggregate Tt” value [3] is on record?
**A.** ≈ 37 °C

**Q.** Which “optical density after incubation with active PSA” value (active PSA) does the source give for “M(GVGVP)60GDGQSSIYSQTEEQQDDEEG (MGVGVPGDGQSSIYSQTEEQQDDEEG) [PSA peptide]” here?
**A.** increase in optical density of the solution above the transition temperature

**Q.** Which “transition temperature prior to and after incubation with MMP-1” value (MMP-1) does the source give for “M(YPSDGRGQ)40YGDGQ VPMSMRGGDEGQQDDEEGY (MYPSDGRGQYGDGQVPMSMRGGDEGQQDDEEGY) [A4 construct, MMP-sensitive-UCST biopolymer]” here?
**A.** change in transition temperature
